Results: the nanobody polyreactivity screen of Harvey et al. (2022)

Experiment: yeast display, Sf9 membrane polyspecificity reagent, FACS + sequencing; frameworks hold sequencing errors
Method in brief: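 Synthetic nanobody libraries on Saccharomyces cerevisiae BJ5465 were galactose-induced for 36–48 hours, stained 1 hour at 4 °C with 10% biotinylated, detergent-solubilized Sf9 membrane reagent and enriched on streptavidin microbeads. FACS then separated cells into low and high (top ~1%) gates by anti-HA (expression) and streptavidin (reagent binding) fluorescence. Genes were colony-PCR amplified, MiSeq 2 × 250 sequenced and CDR-length filtered. A clone's polyreactivity label is that of its gate of origin.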

Row | Sequence | polyreactivity (PSR sort gate)
1 | QVQLVESGGGLVQAGGSLRLSCAASGRILGKNALGWYRQAPGKEREWVADISGRGDRTHYADSVKGRFTISRDNAKNTVYLQMNSLNAEYTAVYYCAKYHHPPGKGQSVSLGYDFWGQGTQVTVSS | low polyreactivity
2 | QVQLVESGGGLVQAGGSLRLSCAASASTFTINAMGWYRQAPGKERELVAAISRSGGSTFYADSVKGRFTISRDNAKKTVYLQMNSLKPEDTAVYYCAARGVNRQGFNYWGQGTQVTVSS | high polyreactivity
3 | QVQLEESAGGLVQAGGSLRLSCAASGRSFNAYAMGWYRQAPGKERELVATISWRTGSTYYADSVKGRFTISRDNAKNTVYLQMNSLKPEDTAVYYCNAKVGSYGAQGYRFAYNYWGQGTQVTVSS | high polyreactivity
4 | QVQLVESGGGLVQAGGSLRLSCAASGRIFPYYAMGWYRQAPGKERELVAAISSGTSTYYADSVKGRFTISRDNANNTVYLKMNSLKQEDTAVYYSNGRHRRGRFTHDYDYWGQGTQVTVTS | low polyreactivity
5 | QVQLEETGGGLVQAGGSLRLSCAASGIILGKNAMGWYRQAPGKERELVASITSGAGITYYADSVKGRFTISRDNAKNTVYLQMNSLKPEDTAVYYCAADWSGDFFTDGYWGQGTQVTVSS | low polyreactivity
6 | QVQLVESGGGLVQAGGRLRLICAASGRIFYSYAMGWYRQAPGKERELVAAISFSVGSTYYADSVKGRFTISRDNAKNTVYLQMNSLKPEDTAVYYCAASLGFPGYEYWGQGTQVTVSS | low polyreactivity
7 | QVQLVESGGGLVQAGGSLRLSCAASGRTFLVNAMGWYRQAPGKERELVAAISSVGSTNYADSVKGRFTISRDNAKNTVYLQMNSLKPEVTSVYYCAKDAEYDCGQGTQVTVSS | low polyreactivity
8 | QVQLVESGGGLVQAGGSLRLSCAASGSTFWVYTMGWYRQAPGKEREFVAAISSGVGSTHYADSVKGRFTLSRDNAKNTVYLNMNSLKPEDTAVYYCAAESYYVYLGWLEYWGQGTQVTVSS | high polyreactivity
9 | QVQLVESGGGLVQAGGSLRLSCAASGRTFPRNGMGWYRQAPGKERELGAGISSAGSTNYADSVKGRFTISRDNAKNTFYLHMNSLKPEDTAVYYCNAVLRRRWVTFYYWGQGTQVTVSS | high polyreactivity
10 | QVQHVESGGGLVQAGGSLRLSCAASGIIFSYNAMGWYRQAPGKERELVAAISSGGRTYYADSVKGRFTISRDNAKNTVYLQMNSLKPEDTAVYYCATTSPHRLYGYYYDYWGQGSQVTVSS | high polyreactivity
11 | QVQLVESGGGLVQARGSLRLSCAASGITFGRNTMGWYRQAPGKERELVAAIDSGGNTYADSVKGRFTISRDNAKNTVYLQMNSLKPDDTAVYYCAVDGGEFSSYGYWGQGTQVTVSS | low polyreactivity
12 | QVQLVESGGGLVQAGGSLRLSCAASGRIFDLNAMGWYRQAPGKERELVATITRSGVSTYYADSVKGRFTISRDNAKNTVYLQLYSLKPEDTAVYYCAKDRYGWGYDYWGQGTQVTVSS | low polyreactivity
13 | QVQLVESGGGLDQAGGSLPLTCAASGRTFWGNAMGWYRQAPGQERELVAGISKSGGTTYADSVKGRFTISRDNAKNTVYLEMNRLKPEDTAVYYCAAGGWWWTIPYEYWGQGTKVTVSS | high polyreactivity
14 | QVQLVESGGGLVQAGGSLRLSCADSGRTFVGNAMGWSRQAPGKERELVAAITSRTGSTYYADSVKGRFTISRDNAKNTVYLQMTSLTPEDTAVYYCATPYYQNVYSRKAYTYWGQGTQVTVSS | high polyreactivity
15 | QVQLVESGGGLVQAGGSLRLSCAASGRTFGGNAMGWYRQAPGKERELVAAISSGGSTNYADSVKGRFTISRDNAKNTVYLQMNSLKPEDTAVYYCAAGWYWWARYDYWGQGTQVTVSS | low polyreactivity
16 | QVQLVESGGGLVQAGGSLRLSCASSGSNTFINAMGWYRQAPGKERELVAAISGSGGSTYYADSVKGRFTISRDNAKNTVYLQMNFLKPEDTAVYYAARTGQYKTYGEYDYWGQGTQVTVSS | low polyreactivity
17 | QVQLVESGGGLVQAGGSLRLSCAASGFIFSRYVMGWYRQAPGKEMELVAVISYRGGSTYYADSVKGRFTISRDNAKNTVYLQMNSLKPEDTAVYYCNADTIPDGEDRYDYWCQGTQVTVSS | low polyreactivity
18 | QVQLVESGGGLVQAGGSLRLSCAASGSTFYVNAMGWYRQAPGKERELVARITENGGITYYADSVKGRFTISRDNAKNTVYLQMNSLKPEDTAVYYCNTVQYRNEMGYWGQGTQVTVSS | high polyreactivity
19 | QVQLVESGGGLVQAGGSLRLSCAASGIIFTDTAMGGYTQPPGKVRELVATISWSTDNTYYADSVKGRFTISRDNAKNTVYLQMNSLKPEDTAVYYCAAEEFYAYWYQSDYWGQGTQVTVSS | low polyreactivity
20 | QDQLVESGGGLVQAGGSLRLSCAASVSIFGYYAMGWYRQAHGKERELVADITSSGSTYYADSVKGRFTISRDNAKNTVYLQMNSLKPEDTAVYYCAADQYYLGSIDGFEYWGQGTQVTVSS | low polyreactivity
21 | QVQLVESGGGLVQAGGSLRLSCAASGSTFPGNARGWSRQAPGKLRELVAAIRWSGGRTYYADSVKGRFTISRDNAKNTVYLQMNSLNPEDTAVSYCNAVSDRPIPWYYYWGQGTQVTASS | low polyreactivity
22 | QVQLVESGGGLVQAGGSLRFSCAPSGRILYKYAMGCYRQAPGKERELVAAISWRGTTTYYADSVKGRFTISRDNAKNTVYLQMNSLKPEDTAVYYCNARVRVRLGRNWSSYYYWGQGTQVTVSS | high polyreactivity

Row | Sequence | polyreactivity (PSR sort gate)
23 | QVQLVESGGGLVQAGGSLRLSCAASGSIFYYYAMGWYRQAPGKERELVAAITSGGSTYYADSVKGRFTISRDNAKNTVYYQMNSLIPEDTAVYYCAAVFYAAYLRYVWYSYDYWGQGTQVTVSS | low polyreactivity
24 | QVQLVESGGGLVQAGGSLRLSCAASGLIFRAYAMGWYRQAPGKERELVAAITRSGGSTYYADSVKGRFTISRDNAKNTVDLQMNSLKPEDTAVYYCATAQWVGYWDDYWGQGTQVTVSS | high polyreactivity
25 | QVQLVESGGGLVQAGGSLRLSCAASGRTFRTYTMGWYRQAPGKEREFVAAITSSGASTYYADSVKGRFTISRDNAKNTVYLEMNSLKPEDTAVYYCAARYGRRLVWVPALLYDYWGQGTQVTVSS | high polyreactivity
26 | QVQLVESGGGLVQAGGSLRLSCAASGRISYGYVMGWYRQAPGKERELVAAISRTGGNTYYADSVKGRFTISRDNAKNTVYLQMNSLKPEDTAVYYCAKVYKTGITQYDYWGQGTQVTVSS | high polyreactivity
27 | QVQLVESGGGLVQAGGSLRLSCAASGSIFYENTMGWYRQAPGKEREFVAAISRSGGSTYYADSEKGRYTISRDNAKNTVYLQRNSLKPEDTAVYYCAAKSRRYHHEYYYWGQGTQVTVSS | high polyreactivity
28 | QVQLVESGGGLVQAGGSLRLSCAASGSILGDYAMGWYRQAPGSEREFVAAIDGSDGSTYYADSVKGRFTISRDNAKNTVYLQMNSLKPEDTAVYYCAATDYDTYRSSWYDYWGQGTQVTVSS | low polyreactivity
29 | QVQLVESGGGLVQAGGSLRLSCAASGSTSVQYAMGWYRQAPGKERELVAAIDRSGGSTSYADSVKGRFTISRYNAKNTVYLQMNSLKPEDTAVYYCNADPVRSTYSYDYWGQGTQVTVSS | low polyreactivity
30 | QVQLVESGGGLVQAGGSLRLSCAASGSTFSTYAMGWYRQAPGTERELVAASRWSGGSTYYADSVKGRFTISRDNAKNTVYLQMNSLKPEDTAVYYCAKGIRRWYGGSDYWGQGTQVTVSS | low polyreactivity
31 | QVQLVESGGGLVQAGGSLRLICAASGSTSYVYAMGWYRQAPGKERELVAAISGSGGRTYYADSVKGRFTISRDNAKNTVYLQMNSLKPEDTAVYYCNALPRPSYPFEYWGQGTQVTVSS | high polyreactivity
32 | QVQLVESGGGLVQAGGSLRLSCAASGRIFDSYAMGWYRQAPGKERELVATISWDSATTYYADSVKGRFTISRDNAKNTVYLQMNSLKPEDTAVYYCNTRDLYGYPQVTGYDYWGQGTQVTVSS | low polyreactivity
33 | QVQLVESGGGLVQAGGSLRLSCAASGLIFRHYAMGWYRQAPGKERELVAVISSGAGTYYADSVKGRFTISRDNAKNTVYLQMISMKPEDTAVYYSARDLYYRYRYFITGLYDSWGQGTQVTVSS | low polyreactivity
34 | QVQLVESWGGLVQAGGSLRISCAASGFIIDGNAMGWYRQAPGKERELLAAISGDGGSYYADSVKGRFTISRDNAKNSVYLQRNSLKPEDTAVYDCAAEQTQLYSFGWDEYWGQGTQVTVSS | low polyreactivity
35 | QVQLVESGGGLVQAGGSLRLSCAASGSIFDYNAMGWYTQAPGKERELVAAITSGGSTNYADSVKGRFTISRDNAKNTVYLQMNSLKPEDTAVYYCAADHDYYPSNLDYWGQGTQVTVSS | low polyreactivity
36 | QVQLVESGGCLVQAGGSLRLSCAASGRTFYAYAMGWYRQAPGKERELVAAISWRGGDTYYADSVKGRFTISRDNAKNTVYLQMNSLKPEETGVYYCAKYLSRQSGDGEYDYWGQGTQVTVSS | low polyreactivity
37 | QVQLVESGGGLVQAGGSLRLSCAASGSTSNTMTWDGIDRRLGKKGSWLPPITVSGGGTYYADSVKGRFTISRDNANNTVYLQMNSLKPEDTAVYYCATEYELAIYGDDYWGQGTQVTVSS | low polyreactivity
38 | QDQLVESGGGIVQAGGSLRLSCAASGRNFILNAMGLYRQAPGKERELVAAITWSGGGTYYADSVKGRFTISRDNAKNTVYLQMNSLKASDSAVYYCNRPAAVGEEDYWGQGTQVTVSS | low polyreactivity
39 | QVQLVESGGGLVQAGGSLRLSCDASGFISRYAMGWYRQAPGKERELVAAINRSGGRTYYADSVKGRFTISRDNAKNTVYLQMNSLTPEDTAVYYCAALRGRYYGVLGEYWGQCTQVTVSS | high polyreactivity
40 | QVQLVESGGGLVQAGGSLRLSCAASGFIFGYYAMGWYRQAPGKERELVAAINGSGGSTYYADSVKGRFTISRDNAKNTVYLQMNSLKPEDTAVYYCNADVVPQYYSWGQGTQVTVSS | low polyreactivity
41 | QVQLVESGGGLVQAGGSLRLSCAASGNIFWRNAMGWYRQAPGKERELVAAISRRAVSTYYADSVKGRFTISRDNAKNTVYLQMNSLKPEDTAVYYCAARLGGENDYWGQGTQVTVSS | high polyreactivity
42 | QVQLVESGGGLVQAGGSLRLSCAASGSIFEFNAMGWYRQAPGKERELVAAITWGGGSTYYADSVKGRFTISRDNAKNTVYLQMNSLKPEDTAVYYCNAAYGRYRYDYWGQGTQVTVSS | low polyreactivity
43 | QVQLVESGGGLVQAGGSLRLSCAASGLTFVRYAMGWYRQAPGKERELVAVISYSGARTYYADSVKGRFTISRDNAKNTVYLQMNSLKPEDTAVYYCAATFRGTFRRIWTDTRAYDYWGQGTQVTVSS | high polyreactivity
